The text below walks through data of patent publication US7291768.

Data set [1] addresses T1, GAD-OsMYBS1 (Oryza sativa) (UniProt B8A9B2).
T1 sequence: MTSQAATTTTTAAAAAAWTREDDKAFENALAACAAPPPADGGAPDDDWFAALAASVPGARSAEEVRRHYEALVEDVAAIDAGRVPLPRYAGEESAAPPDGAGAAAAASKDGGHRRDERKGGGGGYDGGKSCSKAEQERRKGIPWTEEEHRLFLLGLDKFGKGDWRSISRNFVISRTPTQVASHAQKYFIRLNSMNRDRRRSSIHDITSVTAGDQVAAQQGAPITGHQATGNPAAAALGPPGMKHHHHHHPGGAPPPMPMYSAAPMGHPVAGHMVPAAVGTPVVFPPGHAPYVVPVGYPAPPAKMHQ
The experiment in a line: one_hybrid. The note with it: LacZ increase vs no OsMYBS.

Data set [2] deals with GAD-OsMYBS2 (Oryza sativa) (UniProt B8BI93). The experiment in a line: one_hybrid. The note with it: LacZ increase vs no OsMYBS.
Chain of GAD-OsMYBS2 (Oryza sativa) (B8BI93 other isoform, or with tags, fused parts or gaps): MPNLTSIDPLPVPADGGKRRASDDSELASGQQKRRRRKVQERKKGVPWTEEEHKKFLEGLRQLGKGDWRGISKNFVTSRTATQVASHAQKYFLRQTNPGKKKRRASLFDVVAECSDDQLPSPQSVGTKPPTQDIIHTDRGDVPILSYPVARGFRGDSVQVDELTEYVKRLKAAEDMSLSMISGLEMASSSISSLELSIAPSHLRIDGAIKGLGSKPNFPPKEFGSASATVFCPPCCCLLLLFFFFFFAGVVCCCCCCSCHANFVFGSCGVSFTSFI

As for “8x(TATCCA+F), eight repeats of -133 to -82 of alphaAmy3”, the activity in data set [1] stood at 3 fold; in data set [2], 5 fold.
